Measurements: patent US20230265151A1, “GIP/GLP1 CO-AGONIST COMPOUNDS” (priority 2020, published 2023)
Changes are numbered by the printed parent chain. *1 amine or outer side, *2 acyl side, *3 side chain or, on linkers, in order; H or OH if unused. Where no end group is shown, it is not given here. Side-chain parts run from the residue outwards. [ ]: non-standard residue; d: D form. The star is where a group is joined. Decanoyl(10-(4-HOOC-PhO)) = O=C(O)c1ccc(OCCCCCCCCCC(=O)*)cc1; αMePhe(2-F) = C[C@](N)(Cc1ccccc1F)C(=O)O; γGlu = O=C(O)[C@H](CCC(=O)[*:2])N[*:1]; C14 diacid = O=C(O)CCCCCCCCCCCCC(=O)*; αMeY = C[C@](N)(Cc1ccc(O)cc1)C(=O)O; αMeL = CC(C)C[C@](C)(N)C(=O)O; Orn = NCCC[C@H](N)C(=O)O; AEEA = NCCOCCOCC(=O)O; Aib = CC(C)(N)C(=O)O

T1: human GIP receptor (human, UniProt P48546 22-466)
T1 construct: whole, on cells; also called hGIPR; human glucose-dependent insulinotropic polypeptide receptor
T1 sequence (looked up): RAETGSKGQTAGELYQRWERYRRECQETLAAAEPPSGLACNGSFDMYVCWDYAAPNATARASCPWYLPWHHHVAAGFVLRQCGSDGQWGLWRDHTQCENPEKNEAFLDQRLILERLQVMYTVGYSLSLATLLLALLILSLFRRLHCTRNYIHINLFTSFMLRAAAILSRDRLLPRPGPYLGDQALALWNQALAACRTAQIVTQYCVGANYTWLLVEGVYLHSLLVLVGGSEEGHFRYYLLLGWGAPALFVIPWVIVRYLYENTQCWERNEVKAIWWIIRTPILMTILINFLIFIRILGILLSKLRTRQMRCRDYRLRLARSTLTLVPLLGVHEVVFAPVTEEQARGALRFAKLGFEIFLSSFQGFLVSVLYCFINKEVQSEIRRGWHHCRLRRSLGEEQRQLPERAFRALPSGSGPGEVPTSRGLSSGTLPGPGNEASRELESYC

B1: Y-Aib-EGT-αMeF(2F)-TSD-4Pal-Aib-I-αMeL-LD-Orn-QAQ-Aib-Orn-FIK((2-[2-(2-Amino-ethoxy)-ethoxy]-acetyl)-Ahx-(γ-Glu)-CO-(CH2)12-CO2)-αMeY-LIK((2-[2-(2-Amino-ethoxy) … (peptide)
peptide: YXEGTXTSDXXIXLDXQAQXXFIKXLIKGGPSSGAPPPS
modifications: Aib2, αMeF(2F)6, 4Pal10, Aib11, αMeL13, Orn16, Aib20, Orn21, K24(Z1), αMeY25, K28(Z1), C-term NH2; Z1=AEEA-Ahx-(γ-Glu)-CO-(CH2)12-CO2 (so in the source)
B2: Y-Aib-EGT-αMeF(2F)-TSD-4Pal-Aib-I-αMeL-LD-Orn-QAQ-Aib-Orn-FIK(Ahx-(2-[2-(2-Amino-ethoxy)-ethoxy]-acetyl)-(γ-Glu)-(10-(4-carboxyphenoxy)decanoyl))-αMeY-LIK(Ahx-( … (peptide)
peptide: B1 peptide
modifications: Aib2, αMeF(2F)6, 4Pal10, Aib11, αMeL13, Orn16, Aib20, Orn21, K24(Z1), αMeY25, K28(Z1), C-term NH2; Z1=Ahx-AEEA-(γ-Glu)-(10-(4-carboxyphenoxy)decanoyl)
B3: Y-Aib-EGT-αMeF(2F)-TSD-4Pal-Aib-I-αMeL-LD-Orn-QAQ-Aib-Orn-FIK(PEG3-(γ-Glu)-CO-(CH2)12-CO2H)-αMeY-LIK(PEG3-(γ-Glu)-CO-(CH2)12-CO2H)GGPSSGAPPPS-NH2 (peptide)
peptide: B1 peptide
modifications: Aib2, αMeF(2F)6, 4Pal10, Aib11, αMeL13, Orn16, Aib20, Orn21, K24(Z1), αMeY25, K28(Z1), C-term NH2; Z1=PEG3-(γ-Glu)-CO-(CH2)12-CO2H
B4: Y-Aib-EGT-αMeF(2F)-TSD-4Pal-Aib-I-αMeL-LD-Orn-QAQ-Aib-Orn-FIK(Ahx-(2-[2-(2-Amino-ethoxy)-ethoxy]-acetyl)-(γ-Glu)-CO-(CH2)12-CO2)-αMeY-LIK(Ahx-(2-[2-(2-Amino-eth … (peptide)
peptide: B1 peptide
modifications: Aib2, αMeF(2F)6, 4Pal10, Aib11, αMeL13, Orn16, Aib20, Orn21, K24(Z1), αMeY25, K28(Z1), C-term NH2; Z1=Ahx-AEEA-(γ-Glu)-CO-(CH2)12-CO2 (so in the source)
B5: Y-Aib-EGT-αMeF(2F)-TSD-4Pal-Aib-I-αMeL-LD-Orn-QAQ-Aib-Orn-FIK((2-[2-(2-Amino-ethoxy)-ethoxy]-acetyl)-Ahx-(γ-Glu)-(10-(4-carboxyphenoxy)decanoyl))-αMeY-LIK((2-[2 … (peptide)
peptide: B1 peptide
modifications: Aib2, αMeF(2F)6, 4Pal10, Aib11, αMeL13, Orn16, Aib20, Orn21, K24(Z1), αMeY25, K28(Z1), C-term NH2; Z1=AEEA-Ahx-(γ-Glu)-(10-(4-carboxyphenoxy)decanoyl)
B6: Y-Aib-EGT-αMeF(2F)-TSD-4Pal-Aib-I-αMeL-LD-Orn-QAQ-Aib-Orn-FIK(PEG4-(γ-Glu)-CO-(CH2)12-CO2H)-αMeY-LIK(PEG4-(γ-Glu)-CO-(CH2)12-CO2H)GGPSSGAPPPS-NH2 (peptide)
peptide: B1 peptide
modifications: Aib2, αMeF(2F)6, 4Pal10, Aib11, αMeL13, Orn16, Aib20, Orn21, K24(Z1), αMeY25, K28(Z1), C-term NH2; Z1=PEG4-(γ-Glu)-CO-(CH2)12-CO2H
B7: Y-Aib-EGT-αMeF(2F)-TSD-4Pal-SI-αMeL-LD-Orn-K((2-[2-(2-Amino-ethoxy)-ethoxy]-acetyl)2-(γ-Glu)-CO-(CH2)12-CH3)AQ-Aib-EFI-(D-Glu)-αMeY-LIEGGK((2-[2-(2-Amino-ethoxy … (peptide)
peptide: YXEGTXTSDXSIXLDXKAQXEFIXXLIEGGKSSGAPPPS
modifications: Aib2, αMeF(2F)6, 4Pal10, αMeL13, Orn16, K17(Z1), Aib20, D-Glu24, αMeY25, K31(Z1), C-term NH2; Z1=AEEA2-(γ-Glu)-CO-(CH2)12-CH3
B8: Y-Aib-EGT-αMeF(2F)-TSDV-Aib-I-αMeL-LD-Orn … (peptide)
peptide: Y[Aib]EGT[αMePhe(2-F)]TSDV[Aib]I[αMeL]LD[Orn]QAQ[Aib][Orn]FIK([AEEA-AEEA-γGlu-C14 diacid])[αMeY]LIK([AEEA-AEEA-γGlu-C14 diacid])GGPSSGAPPPS-NH2
modifications: N-terminus assumed
SMILES: CC[C@H](C)[C@H](NC(=O)[C@H](CC(C)C)NC(=O)[C@](C)(Cc1ccc(O)cc1)NC(=O)[C@H](CCCCNC(=O)COCCOCCNC(=O)COCCOCCNC(=O)CC[C@H](NC(=O)CCCCCCCCCCCCC(=O)O)C(=O)O)NC(=O)[C@@H](NC(=O)[C@H](Cc1ccccc1)NC(=O)[C@H](CCCN)NC(=O)C(C)(C)NC(=O)[C@H](CCC(N)=O)NC(=O)[C@H](C)NC(=O)[C@H](CCC(N)=O)NC(=O)[C@H](CCCN)NC(=O)[C@H](CC(=O)O)NC(=O)[C@H](CC(C)C)NC(=O)[C@](C)(CC(C)C)NC(=O)[C@@H](NC(=O)C(C)(C)NC(=O)[C@@H](NC(=O)[C@H](CC(=O)O)NC(=O)[C@H](CO)NC(=O)[C@@H](NC(=O)[C@](C)(Cc1ccccc1F)NC(=O)[C@@H](NC(=O)CNC(=O)[C@H](CCC(=O)O)NC(=O)C(C)(C)NC(=O)[C@@H](N)Cc1ccc(O)cc1)[C@@H](C)O)[C@@H](C)O)C(C)C)[C@@H](C)CC)[C@@H](C)CC)C(=O)N[C@@H](CCCCNC(=O)COCCOCCNC(=O)COCCOCCNC(=O)CC[C@H](NC(=O)CCCCCCCCCCCCC(=O)O)C(=O)O)C(=O)NCC(=O)NCC(=O)N1CCC[C@H]1C(=O)N[C@@H](CO)C(=O)N[C@@H](CO)C(=O)NCC(=O)N[C@@H](C)C(=O)N1CCC[C@H]1C(=O)N1CCC[C@H]1C(=O)N1CCC[C@H]1C(=O)N[C@@H](CO)C(N)=O
B9: Y-Aib-EGT-αMeF(2F)-TSDY-Aib-I-αMeL-LD-Orn-IAQ-Aib-Orn-FIK((2-[2-(2-Amino-ethoxy)-ethoxy]-acetyl)3-(γ-Glu)-CO-(CH2)12-CO2H)-αMeY-LIK((2-[2-(2-Amino-ethoxy)-ethox … (peptide)
peptide: B1 peptide with X10Y, Q17I
modifications: Aib2, αMeF(2F)6, Aib11, αMeL13, Orn16, Aib20, Orn21, K24(Z1), αMeY25, K28(Z1), C-term NH2; Z1=AEEA3-(γ-Glu)-CO-(CH2)12-CO2H
B10: Y-Aib-EGT-αMeF(2F)-TSDY-Aib-I-αMeL-LD-Orn-IAQ-Aib-Orn-FIK((2-[2-(2-Amino-ethoxy)-ethoxy]-acetyl)3-(γ-Glu)--(10-(4-carboxyphenoxy)decanoyl))-αMeY-LIK((2-[2-(2-Am … (peptide)
peptide: B1 peptide with X10Y, Q17I
modifications: Aib2, αMeF(2F)6, Aib11, αMeL13, Orn16, Aib20, Orn21, K24(Z1), αMeY25, K28(Z1), C-term NH2; Z1=AEEA3-(γ-Glu)-(10-(4-carboxyphenoxy)decanoyl)

Target: T1, human GIP receptor
Test: SPA competition vs [125I]-GIP, hGIPR membranes

Binder | Ki [nM]
B1 | 0.0133
B2 | 0.0143
B3 | 0.0232
B4 | 0.0239
B5 | 0.013
B6 | 0.0419
B7 | 0.024
B8 | 0.0314
B9 | 0.0406
B10 | 0.0266
Y[Aib]EGT[αMePhe(2-F)]TSDV[Aib]I[αMeL]LD[Orn]QAQ[Aib]EFIK([AEEA-AEEA-γGlu-Decanoyl(10-(4-HOOC-PhO))])[αMeY]LIK([AEEA-AEEA-γGlu-Decanoyl(10-(4-HOOC-PhO))])GGPSSGAPPPS-NH2 | 0.0369

Target: T2, human glucagon receptor (human, UniProt P47871 26-477)
T2 construct: whole, on cells; also called hGCGR; hGcgR
T2 sequence (P47871 26-477): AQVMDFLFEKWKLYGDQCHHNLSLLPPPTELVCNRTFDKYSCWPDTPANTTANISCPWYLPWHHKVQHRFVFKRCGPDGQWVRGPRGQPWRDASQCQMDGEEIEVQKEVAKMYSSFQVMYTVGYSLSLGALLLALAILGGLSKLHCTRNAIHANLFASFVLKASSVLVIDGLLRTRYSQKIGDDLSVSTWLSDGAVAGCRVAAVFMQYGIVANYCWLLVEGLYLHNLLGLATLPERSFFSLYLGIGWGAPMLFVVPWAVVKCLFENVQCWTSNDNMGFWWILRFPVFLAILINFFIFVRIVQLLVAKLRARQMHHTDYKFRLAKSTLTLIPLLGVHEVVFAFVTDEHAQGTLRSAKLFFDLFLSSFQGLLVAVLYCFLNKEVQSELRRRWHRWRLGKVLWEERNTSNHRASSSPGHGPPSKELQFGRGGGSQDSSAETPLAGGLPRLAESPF
Test: SPA competition vs [125I]-Gcg, hGcgR membranes

Binder | Ki [nM]
B1 | 243
B2 | 60.1
B3 | 170
B4 | 258
B5 | 71.8
B6 | 351
B7 | 4.29
B8 | 116
B9 | 49.7
B10 | 20.1
Y[Aib]EGT[αMePhe(2-F)]TSDV[Aib]I[αMeL]LD[Orn]QAQ[Aib]EFIK([AEEA-AEEA-γGlu-Decanoyl(10-(4-HOOC-PhO))])[αMeY]LIK([AEEA-AEEA-γGlu-Decanoyl(10-(4-HOOC-PhO))])GGPSSGAPPPS-NH2 | 109

Target: T3, human GLP-1 receptor (human, UniProt P43220 24-463)
T3 construct: whole, on cells; also called hGLP-1R; human glucagon-like peptide-1 receptor
Test: SPA competition vs [125I]-GLP-1, hGLP-1R membranes
How it was run: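 Kᵢ values are geometric means (SEM) over replicates run on separate days, derived from IC₅₀ of four-parameter curve fits. Buffer: HEPES 25 mM pH 7.4 with CaCl₂ 2.5 mM, MgCl₂ 1 mM, bacitracin 0.1%, TWEEN-20 0.003%, EDTA-free protease inhibitors.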

Binder | Ki [nM]
B1 | 0.201
B2 | 0.243
B3 | 0.266
B4 | 0.234
B5 | 0.123
B6 | 0.252
B7 | 0.139
B8 | 0.367
B9 | 0.407
B10 | 0.326
Y[Aib]EGT[αMePhe(2-F)]TSDV[Aib]I[αMeL]LD[Orn]QAQ[Aib]EFIK([AEEA-AEEA-γGlu-Decanoyl(10-(4-HOOC-PhO))])[αMeY]LIK([AEEA-AEEA-γGlu-Decanoyl(10-(4-HOOC-PhO))])GGPSSGAPPPS-NH2 | 0.382
